Data reported in patent publication US20140212436A1.

What was measured:
Assay in all cases: Biacore
[1] = biological target: human V158 FcγRIIIa (human) (UniProt P08637)
[2] = biological target: human H131 FcγRIIa (human) (UniProt P12318)
human FcγRI (human) = human FcγRI (human) (UniProt P12314)
FcγRIIaR (human) = FcγRIIaR (human) (UniProt P12318)
[3] = biological target: recombinant human FcγRIIb protein (human) (UniProt P31994)
Chain of recombinant human FcγRIIb protein (human) (P31994 46-217 limits assumed): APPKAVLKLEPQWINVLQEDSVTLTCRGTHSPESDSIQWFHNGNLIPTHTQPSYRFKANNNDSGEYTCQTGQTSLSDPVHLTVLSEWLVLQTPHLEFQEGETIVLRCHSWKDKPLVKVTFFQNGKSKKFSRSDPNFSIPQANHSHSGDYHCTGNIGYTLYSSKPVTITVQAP

Chain of human H131 FcγRIIa (human) (P12318 other isoform, or with tags, fused parts or gaps limits assumed): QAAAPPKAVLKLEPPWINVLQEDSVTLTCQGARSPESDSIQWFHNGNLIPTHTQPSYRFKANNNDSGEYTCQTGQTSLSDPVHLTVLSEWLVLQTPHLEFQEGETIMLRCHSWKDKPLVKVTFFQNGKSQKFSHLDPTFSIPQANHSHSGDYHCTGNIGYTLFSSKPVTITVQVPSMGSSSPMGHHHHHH
Chain of human V158 FcγRIIIa (human) (P08637 other isoform, or with tags, fused parts or gaps limits assumed): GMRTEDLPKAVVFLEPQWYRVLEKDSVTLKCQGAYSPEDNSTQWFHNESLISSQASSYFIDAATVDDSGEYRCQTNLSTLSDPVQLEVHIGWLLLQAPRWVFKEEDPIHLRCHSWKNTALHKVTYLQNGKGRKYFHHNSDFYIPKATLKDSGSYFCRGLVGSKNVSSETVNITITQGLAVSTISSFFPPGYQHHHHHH
Chain of FcγRIIaR (human) (P12318 34-217 H167R limits assumed): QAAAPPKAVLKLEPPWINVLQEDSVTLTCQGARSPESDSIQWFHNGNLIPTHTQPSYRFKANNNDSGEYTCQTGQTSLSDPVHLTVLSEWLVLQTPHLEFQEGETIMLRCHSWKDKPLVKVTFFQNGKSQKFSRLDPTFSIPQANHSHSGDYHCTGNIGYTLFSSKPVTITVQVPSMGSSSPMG
Chain of human FcγRI (human) (P12314 16-288 limits assumed): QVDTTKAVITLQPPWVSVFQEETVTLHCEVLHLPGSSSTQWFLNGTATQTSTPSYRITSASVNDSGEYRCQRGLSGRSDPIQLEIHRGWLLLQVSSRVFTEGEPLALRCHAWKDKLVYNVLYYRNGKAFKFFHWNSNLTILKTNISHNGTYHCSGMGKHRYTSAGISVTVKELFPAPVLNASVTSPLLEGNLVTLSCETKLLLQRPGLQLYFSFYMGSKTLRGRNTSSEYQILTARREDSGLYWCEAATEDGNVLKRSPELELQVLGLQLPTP

Row | Substance | Fold [1] | Kd [1] [nM] | Fold [2] | Kd [2] [nM] | Fold (human FcγRI (human)) | Kd (human FcγRI (human)) [nM] | Fold (FcγRIIaR (human)) | Kd (FcγRIIaR (human)) [nM] | Fold [3] | Kd [3] [nM]
1 | A327D (antibody) | 0.398 | 481 | 0.733 | 882 | 2.06 | 0.16 | 1.6 | 536 | 1.33 | 1100
2 | G236D/S239D/S267E (antibody) |  |  | 0.217 | 2980 | 0.0685 | 4.81 | 26.7 | 32.2 | 84.8 | 17.3
3 | G236D/S267E/H268E (antibody) |  |  | 0.103 | 6300 | 0.0902 | 3.65 | 29.9 | 28.7 | 110 | 13.4
4 | G236D/S267E/L328F (antibody) |  |  | 0.0301 | 21500 | 0.0736 | 4.48 | 59.9 | 14.3 | 149 | 9.87
5 | G236S (antibody) | 0.00367 | 52200 | 3.76 | 172 | 0.0268 | 12.3 | 2.33 | 369 | 1.02 | 1440
6 | G237A (antibody) |  |  |  |  | 0.0108 | 30.5 | 0.704 | 1220 | 0.191 | 7680
7 | G237D/S267E (antibody) |  |  |  |  | 0.0874 | 3.77 | 13.6 | 63.1 | 17 | 86.1
8 | H268D (antibody) | 3.08 | 62.2 | 1.89 | 342 | 2.35 | 0.14 | 4.19 | 205 | 3.06 | 480
9 | IgG1/2ELLGG_S267E/L328F (antibody) |  |  | 0.993 | 651 | 2.35 | 0.14 | 269 | 3.19 | 221 | 6.63
10 | L234D/S267E (antibody) | 0.14 | 1370 |  |  | 0.0286 | 11.5 | 12.7 | 67.7 | 21.7 | 67.8
11 | L234E/S267E (antibody) |  |  |  |  | 0.131 | 2.51 | 10.7 | 80.4 | 15.1 | 97
12 | L234W (antibody) |  | 6590 |  | 1160 |  | 10.5 |  |  |  | 1770
13 | L235A (antibody) | 0.314 | 609 | 0.0486 | 13300 | 0.0179 | 18.4 | 0.166 | 5180 | 0.351 | 4180
14 | L235D/S267E (antibody) |  |  |  |  | 0.00039 | 854 | 13 | 66.1 | 16.7 | 88.1
15 | L235D/S267E/L328F (antibody) |  |  | 0.275 | 2350 | 0.00057 | 573 | 133 | 6.45 | 80.4 | 18.2
16 | L235F/S267E (antibody) |  |  | 0.402 | 1610 | 0.0176 | 18.7 | 32.5 | 26.4 | 28.4 | 51.7
17 | L235I (antibody) | 0.903 | 212 | 0.181 | 3580 | 0.0197 | 16.7 | 0.666 | 1290 | 0.908 | 1620
18 | S239D/S267E/H268E (antibody) |  |  |  | 817 |  | 0.326 |  |  |  | 6.91
19 | S267E/A327D (antibody) | 0.00199 | 96300 |  |  | 1.66 | 0.198 | 16.7 | 51.3 | 21.2 | 69.1
20 | S267E/N325L (antibody) |  |  |  |  |  |  | 41.5 | 20.7 | 31.5 | 46.6
21 | S298D (antibody) |  |  |  |  |  |  | 1.45 | 592 | 0.797 | 1840
22 | V266D (antibody) |  |  |  |  |  |  | 0.704 | 1220 | 0.147 | 10000

Further substances by falling Kd [3], results first:

Row | Fold [1] | Kd [1] [nM] | Fold [2] | Kd [2] [nM] | Fold (human FcγRI (human)) | Kd (human FcγRI (human)) [nM] | Fold (FcγRIIaR (human)) | Kd (FcγRIIaR (human)) [nM] | Fold [3] | Kd [3] [nM] | Substance
23 |  |  | 0.486 | 1330 | 0.0157 | 21 | 0.35 | 2460 | 0.00225 | 652000 | G236T (antibody)
24 |  |  |  |  | 0.0362 | 9.11 | 0.228 | 3760 | 0.409 | 3590 | L234F (antibody)
25 |  |  |  |  | 0.0279 | 11.8 | 0.609 | 1410 | 0.843 | 1740 | A327N (antibody)
26 |  |  |  |  |  | 0.626 |  | 517 |  | 1450 | S267G (antibody)
27 |  |  | 0.167 | 3870 | 0.0211 | 15.6 | 0.758 | 1130 | 1.54 | 953 | G236D (antibody)
28 | 2.19 | 87.5 | 1.43 | 453 | 2.74 | 0.12 | 3.19 | 269 | 2.62 | 560 | H268E (antibody)
29 |  |  |  |  | 0.0355 | 9.27 | 3.27 | 263 | 19.8 | 74.2 | G236N/S267E (antibody)
30 | 0.0938 | 2040 | 0.509 | 1270 | 0.661 | 0.498 | 20.7 | 41.6 | 26.4 | 55.7 | L234F/S267E (antibody)
31 |  |  | 0.941 | 687 | 0.00347 | 95 | 37.5 | 22.9 | 37.2 | 39.4 | L235Y/S267E (antibody)
32 |  |  |  |  | 0.101 | 3.25 | 61.5 | 14 | 40.5 | 36.2 | G237N/S267E (antibody)
33 |  |  | 1.34 | 481 | 0.224 | 1.47 | 122 | 7.06 | 43.1 | 34.1 | S267E/L328Y (antibody)
34 |  |  | 0.758 | 853 | 0.00436 | 75.5 | 171 | 5.02 | 187 | 7.83 | L235Y/S267E/L328F (antibody)
35 |  |  | 0.0725 | 8920 | 0.0425 | 7.75 | 174 | 4.93 | 195 | 7.53 | L234E/S267E/L328F (antibody)
